Measurements: article doi:10.1101/528240 (bioRxiv, 2019)

Key:
[1] = molecular target: GII.4 CHDC-1974 norovirus major capsid protein VP1, assembled as virus-like particles (VLPs) (human norovirus GII.4 (CHDC-1974)); assay: cryo-EM structure
cryo-EM structure = molecular target: the molecule itself; assay: cryo-EM structure

GII.4 CHDC-1974 norovirus major capsid protein VP1, assembled as virus-like particles (VLPs) (natural protein)
stoichiometry N [1]: 240

B1: GII.4 NSW-2012 norovirus major capsid protein VP1, assembled as virus-like particles (VLPs) (natural protein, human norovirus GII.4 (NSW-2012), UniProt K4LM89 1-540, looked up)
chain: MKMASSDANPSDGSAANLVPEVNNEVMALEPVVGAAIAAPVAGQQNVIDPWIRNNFVQAPGGEFTVSPRNAPGEILWSAPLGPDLNPYLSHLARMYNGYAGGFEVQVILAGNAFTAGKVIFAAVPPNFPTEGLSPSQVTMFPHIVVDVRQLEPVLIPLPDVRNNFYHYNQSNDPTIKLIAMLYTPLRANNAGDDVFTVSCRVLTRPSPDFDFIFLVPPTVESRTKPFSVPVLTVEEMTNSRFPIPLEKLFTGPSSAFVVQPQNGRCTTDGVLLGTTQLSPVNICTFRGDVTHITGSRNYTMNLASQNWNDYDPTEEIPAPLGTPDFVGKIQGVLTQTTRTDGSTRGHKATVYTGSADFAPKLGRVQFETDTDRDFEANQNTKFTPVGVIQDGGTTHRNEPQQWVLPSYSGRNTHNVHLAPAVAPTFPGEQLLFFRSTMPGCSGYPNMDLDCLLPQEWVQYFYQEAAPAQSDVALLRFVNPDTGRVLFECKLHKSGYVTVAHTGQHDLVIPPNGYFRFDSWVNQFYTLAPMGNGTGRRRAV
stoichiometry N (cryo-EM structure): 240
